Molecular target: T1, Myc-DDK-tagged human CD2-associated protein (human, UniProt Q9Y5K6 1-639)
T1 construct: human CD2-associated protein (CD2AP), full-length protein; also called Myc-tagged CD2AP; Myc-CD2AP recombinant protein; source: bought: Origene Technologies (RC210191), recombinant protein
Experiment: peptide or protein array; PepStar microarray of 225 TKS4 15-mers (11 overlapping residues) on a glass slide, three subarrays; recombinant Myc-CD2AP incubated 1 h at 30 °C in SmartBlock solution, TBS washes, detected with Alexa Fluor 488 anti-Myc-tag antibody; threshold 10,000 U
Conditions: both partners purified

T1 sequence (Q9Y5K6 whole entry): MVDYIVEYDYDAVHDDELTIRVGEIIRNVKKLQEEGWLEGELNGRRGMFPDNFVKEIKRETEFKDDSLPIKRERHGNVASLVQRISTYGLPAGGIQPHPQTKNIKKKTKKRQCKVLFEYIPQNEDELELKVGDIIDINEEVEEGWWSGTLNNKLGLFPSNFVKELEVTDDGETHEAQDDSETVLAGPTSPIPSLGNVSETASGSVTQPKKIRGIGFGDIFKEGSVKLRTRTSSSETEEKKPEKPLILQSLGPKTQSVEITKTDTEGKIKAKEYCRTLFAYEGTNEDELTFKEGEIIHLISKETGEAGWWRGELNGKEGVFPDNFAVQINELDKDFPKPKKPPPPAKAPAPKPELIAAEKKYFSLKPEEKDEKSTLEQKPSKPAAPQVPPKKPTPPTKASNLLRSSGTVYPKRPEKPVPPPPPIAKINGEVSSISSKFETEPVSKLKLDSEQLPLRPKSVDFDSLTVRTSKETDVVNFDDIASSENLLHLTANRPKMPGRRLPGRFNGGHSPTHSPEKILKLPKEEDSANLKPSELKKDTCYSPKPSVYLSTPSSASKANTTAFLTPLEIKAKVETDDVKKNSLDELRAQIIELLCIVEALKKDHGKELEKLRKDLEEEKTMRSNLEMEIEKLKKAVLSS

B1: TKS4 peptide 189 (15-mer of the PepStar peptide microarray) (peptide, UniProt A1X283 753-767, looked up)
peptide: QRPVVPPRRPPPPKK
notes: contains the motif 755-PVVPPR-760; source: synthetic peptide printed on a glass slide; bought: JPT Peptide Technologies (PepStar microarray)
B1: binds.

B2: TKS4 peptide 188 (15-mer of the PepStar peptide microarray) (peptide, UniProt A1X283 749-763, looked up)
peptide: EAPQQRPVVPPRRPP
notes: as for B1
B2: binds.

— PMC10606890, “Studying the Association of TKS4 and CD2AP Scaffold Proteins and Their Implications in the Partial Epithelial–Mesenchymal Transition (EMT) Process” (International Journal of Molecular Sciences, 2023)
